The text below walks through data of the supplement of paper PMC12042874.

± gives the uncertainty stated by the source.

A short description of the series: amyloid nucleation score (Sup35N fusion, yeast selection) (log enrichment); library NNK1; higher = more nucleation; inactive = no reads after selection. In outline:
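Nucleation score is defined as the DiMSum log enrichment of output over input reads, with centring on the mode score of non-aggregating sequences. A minimum of 100 input reads was required for each sequence. Reads came from Illumina sequencing of plasmid inserts from psi-negative yeast expressing Sup35N fused to peptides of 20 random codons, induced with 100 μM copper sulfate for 24 hours and grown 7 days at 30°C on medium lacking adenine and uracil.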
SKAKYGESSVWRVGLMGCF registered an amyloid nucleation score of -1.06 ± 0.83.

On to GMQIKYNLCSRKTLVENGIS, for which the amyloid nucleation score was 3.48 ± 0.12.

In turn, RASSFAEIPVVSCDGGLVKW displayed an amyloid nucleation score of -0.129 ± 0.41.

The substance GYPWVV showed an amyloid nucleation score of 0.993 ± 0.55.

With ALVFSALLVFRCGDCAASKA, the amyloid nucleation score is 4.25 ± 0.062.

On to AWGRDYEELSSPLGMKALTW, for which the amyloid nucleation score turned out to be 0.381 ± 0.31.

Turning to LTGYTAS, the amyloid nucleation score was determined as 0.295 ± 0.37.

Regarding VCWLGIKCVRVISNWLCAQS, the amyloid nucleation score is -1.04 ± 1.6.

VWSNMCFLIDSI: the amyloid nucleation score was -0.491 ± 0.3.

Substance NIGIRI had an amyloid nucleation score of 0.095 ± 0.39.

The substance YSRNNIIHFRFISALLPEEV showed an amyloid nucleation score of 0.683 ± 0.37.

The substance SYNRIILTFWSFLL displayed an amyloid nucleation score of 1.13 ± 0.35.

SVSFEDDISMASGCCFLRGC yielded an amyloid nucleation score of -0.146 ± 0.25.

With CCRSRLLIITRTVSTAGDSR, the amyloid nucleation score was -0.54 ± 1.3.

Take FSSCRPMIYLRCTEYNG: the amyloid nucleation score is -0.41 ± 1.9.

In turn, FKSASVRRI gave an amyloid nucleation score of -0.822 ± 0.84.

In turn, YVSADLGMYTVDGAEFYCEN showed an amyloid nucleation score of 0.106 ± 0.43.

Substance FKLVI came in with an amyloid nucleation score of 0.697 ± 0.9.

HALMTARAFTCPWRMVVKFQ registered an amyloid nucleation score of 0.897 ± 0.61.

On to CTIRYWF, for which the amyloid nucleation score is 1.5 ± 0.42.

ALVALRAY registered an amyloid nucleation score of 0.364 ± 1.2.

EFYSVTIGNWAMNRTHWRVN: the amyloid nucleation score was 0.461 ± 0.69.

In turn, LRNAMVMSLYN yielded an amyloid nucleation score of -0.423 ± 0.72.

Take TRTNELF: the amyloid nucleation score amounted to 0.498 ± 0.33.

Regarding NDCKSQRSRNSMGCQ, the amyloid nucleation score entry is “inactive”.

Substance FMWKINWRENLYRLYSFSAY gave an amyloid nucleation score of -0.11 ± 0.51.

Regarding EIRKNTASMIMKLCIYIVGA, the amyloid nucleation score was -0.007 ± 0.45.

Turning to RPTLDVIRNCRVDFAEKGGN, the amyloid nucleation score was determined as 0.711 ± 0.35.

QAYLKVQVWLDRRNSI: the amyloid nucleation score entry was “inactive”.

Substance HYYANSGVCSTSVNLFRLGS gave an amyloid nucleation score of 6.529 ± 0.049.

For CNHSTSFVEVVERL, the amyloid nucleation score is -0.085 ± 0.42.

QLSFCYHLCWVICEGMVLEV: the amyloid nucleation score is -0.245 ± 0.42.

Turning to VSPDYMSYCIGVYLINLISV, the amyloid nucleation score was determined as 0.354 ± 0.59.

CRMGFNQLWLKLRNRCVGLG registered an amyloid nucleation score of -0.008 ± 0.36.

With YIDSLISLITDSCMNHRDGR, the amyloid nucleation score is -0.29 ± 1.1.

In turn, RIFNKDSLGI returned an amyloid nucleation score of -0.554 ± 0.48.

Substance DNLLEAASNNIIEYVCSPLE registered an amyloid nucleation score of 0.501 ± 0.44.

As for SNNDFLTSPAFGLLTG, the amyloid nucleation score is 0.066 ± 0.45.

YCIPTVRVFL had an amyloid nucleation score of 0.575 ± 0.66.

Consider GVGVLLSYSELFDSTIEGPT, for which the amyloid nucleation score came to 0.664 ± 0.59.

On to DYGVMWI, for which the amyloid nucleation score was 0.296 ± 0.41.

In the case of IWMYP, the amyloid nucleation score is 1.7 ± 0.65.

RVNFSDTYTSSGGFALGMST had an amyloid nucleation score of 0.43 ± 0.3.

Regarding SGPHGRFDARSMLAIL, the amyloid nucleation score was -0.773 ± 0.64.

In turn, VCLLHNIVKGFARYINSHK showed an amyloid nucleation score of 0.423 ± 0.5.

In turn, GNYTS yielded an amyloid nucleation score of -0.894 ± 0.59.

In turn, LGIVSCTSQNPNGVDTSIFG yielded an amyloid nucleation score of 0.117 ± 1.4.

For KLVTAPISKSLF, the amyloid nucleation score amounted to 0.55 ± 0.92.

Take TKPMIMSTFSEFCIPCTMRL: the amyloid nucleation score was found to be 0.182 ± 0.55.

For the substance YVVGARNEVRGYRVGTRLIR, the amyloid nucleation score worked out at 0.155 ± 1.5.

Consider SLWIKQLRERVANFLAGFEG, for which the amyloid nucleation score entry was “inactive”.

TDSEVAFVNGTNSQRWFFGW: the amyloid nucleation score was found to be 1.07 ± 0.53.

In turn, GWYFPILRDLRNVGGVF came in with an amyloid nucleation score of -0.677 ± 1.1.

Substance CRYTMGSNKVALFYGWMHPG came in with an amyloid nucleation score of 0.726 ± 0.66.

As to AFMGPWEPFLVHFTRRPSPY, the amyloid nucleation score is -0.856 ± 2.4.

AILVGMFYAKTVGGQYRVHG came in with an amyloid nucleation score of 0.369 ± 0.61.

In turn, IYGWVHTSMRMRVGTAVLPR came in with an amyloid nucleation score of 0.375 ± 0.54.

As for CRVLWQWNSKLGCFAAALNL, the amyloid nucleation score was -0.326 ± 0.63.

Take KCWLHCWWTVNKTLRYAVRS: the amyloid nucleation score was -0.531 ± 0.47.

The substance SHIMRRFLWVELAQ had an amyloid nucleation score of -1.18 ± 1.1.

The substance HTVPILRSAVPDSDARAKSQ showed an amyloid nucleation score of 0.493 ± 0.4.

VEPLCGTRFACRLNAFKTTG: the amyloid nucleation score was -0.097 ± 0.39.

In turn, FLEFVWRALEM yielded an amyloid nucleation score of -1.16 ± 0.86.

Regarding TIRARMVCLNCQMVR, the amyloid nucleation score came to 3.54 ± 0.079.

Regarding FLHRM, the amyloid nucleation score is 0.062 ± 0.75.

Take TAMKILPAQRGCIYVWHNRR: the amyloid nucleation score entry is “inactive”.

Take NDRKYLCMMRILMSNRRVLQ: the amyloid nucleation score was 0.553 ± 0.3.

For the substance LDGTGWYCCQYSGGLYSLCG, the amyloid nucleation score is -0.073 ± 0.31.

For the substance SYPFWYSHMIHCYRFAIFGL, the amyloid nucleation score was -2.73 ± 2.4.

Take LSQNLAPGIVFFAV: the amyloid nucleation score was -1.02 ± 1.7.

On to VGWLRFIRWYDPRLENWRTG, for which the amyloid nucleation score is 0.235 ± 0.78.

With SKGFDDESTAGSFFKLMLLY, the amyloid nucleation score was -1.9 ± 2.4.

Regarding RLCFRASRETFLCNRFNY, the amyloid nucleation score entry was “inactive”.

Turning to IRTVKADNMRIWQAQRSSEI, the amyloid nucleation score was 0.157 ± 0.87.

The substance GFVGFTGF gave an amyloid nucleation score of 0.308 ± 0.77.

For YKGYYCGSDDFPDSEKPEDG, the amyloid nucleation score is -0.256 ± 0.32.

ISSLESRTTMRVV registered an amyloid nucleation score of 0.377 ± 0.5.

Take LLLLHLWLALRGLSDCSSHV: the amyloid nucleation score was 0.626 ± 0.87.

On to GWYFYG, for which the amyloid nucleation score is 0.702 ± 0.32.

SIGRLIPYFNQTPFCIS registered an amyloid nucleation score of -0.338 ± 0.23.

In turn, SDDLGE registered an amyloid nucleation score of -0.301 ± 0.39.

Consider AGVAPYWVPTSEQDQLRRGT, for which the amyloid nucleation score is -0.721 ± 1.9.

CTVMHELCCRWFELFRRSVR displayed an amyloid nucleation score of 1.45 ± 0.63.

LFMFRLKYVIHWDIG returned an amyloid nucleation score of 0.911 ± 0.54.

On to DLLLRSSTSTVVCIMNRTTS, for which the amyloid nucleation score turned out to be 3.94 ± 0.076.

In the case of TSSDCLLDSSIFNVGKFWYV, the amyloid nucleation score came to 0.019 ± 0.53.

The substance LRHFCGTFAAVTRKRVYPLS returned an amyloid nucleation score of -0.95 ± 2.7.

Substance GLGTAYIGLCWHTIWHAAGV displayed an amyloid nucleation score of 1.46 ± 0.16.

As for SVTWSYVTHLLLWLFGGAGL, the amyloid nucleation score worked out at 0.848 ± 0.76.

LIIVRSMSNDGSIVGSQAWP came in with an amyloid nucleation score of 8.152 ± 0.073.

On to MVRCNYRRRVGGDT, for which the amyloid nucleation score was determined as 0.905 ± 0.69.

Take CRNTLPGP: the amyloid nucleation score is -0.398 ± 0.44.

The substance ALPHSKFKAMVFRSLWRDRG showed an amyloid nucleation score of 0.51 ± 1.2.

In turn, GPALTHTHS showed an amyloid nucleation score of 0.306 ± 0.63.

Take RRRYSC: the amyloid nucleation score was -0.307 ± 0.42.

Take ENIALIYLECVFKVGSRCFE: the amyloid nucleation score stood at 0.198 ± 0.24.

As to RRYWVIIIEVAGSRSVETPV, the amyloid nucleation score was -0.823 ± 0.51.

Regarding YLCRLDLTTDRKSTGLLCGC, the amyloid nucleation score was 0.022 ± 0.34.

LINHIS had an amyloid nucleation score of 0.444 ± 0.9.

VKGSGGGWFERNSGAPRKVF yielded an amyloid nucleation score of 1.03 ± 0.38.

As for MLGLWIVARLVLSVDSQRVE, the amyloid nucleation score result is “inactive”.

Regarding FLFACFMRVAL, the amyloid nucleation score stood at 1.46 ± 0.24.

As to ITLRVLFFRGKVLFTSGIQE, the amyloid nucleation score came to 0.71 ± 1.1.

As for ELVISMGRLWVG, the amyloid nucleation score worked out at 2.02 ± 0.17.

As to TVPLEIIL, the amyloid nucleation score worked out at 0.382 ± 0.52.

Turning to CNQYWVSQ, the amyloid nucleation score was determined as 0.322 ± 0.26.

Consider PFFRVVY, for which the amyloid nucleation score result is “inactive”.

Take ITAWWQVSL: the amyloid nucleation score was 0.565 ± 0.36.

As to TRALVFRQYYIAPVHCYYLG, the amyloid nucleation score worked out at 3.54 ± 0.19.

SFESYEH came in with an amyloid nucleation score of 1.29 ± 0.9.

QRSNRGLPYKSRDGI showed an amyloid nucleation score of 0.153 ± 0.39.

On to VAPVEYICELTLWA, for which the amyloid nucleation score is -1.22 ± 2.7.

Regarding LWVRSKFRSC, the amyloid nucleation score is -0.08 ± 1.1.

As for YSTYLSS, the amyloid nucleation score is 1.4 ± 0.66.

The substance VIVCIEAAAETYSTGQSLDA registered an amyloid nucleation score of -0.15 ± 0.3.

Substance CYLPWDSKNGVEDLYWYEFK yielded an amyloid nucleation score of 1.79 ± 0.13.

In the case of VMADYVDNSHMVVMQTCVCM, the amyloid nucleation score came to 7.667 ± 0.061.

In turn, PEAGGLHARYVYFVWNSAPC had an amyloid nucleation score of 2.69 ± 0.28.

Regarding CLKFLDLNIKIDPYQFSF, the amyloid nucleation score result is “inactive”.

With VLIGIWLHLGHFEPALSM, the amyloid nucleation score is -0.133 ± 0.53.

On to TRGTPFEYLATGG, for which the amyloid nucleation score is 0.607 ± 0.71.

VDVHVGCRTIRL showed an amyloid nucleation score of 0.034 ± 0.32.

Substance HSMVFNLEWFKARQDGDLN showed an amyloid nucleation score of 1.5 ± 0.34.

YTQFYVLESIYRTTLCP: the amyloid nucleation score was 0.554 ± 0.58.

TSAVSSCDFRKRWCCSSFHW had an amyloid nucleation score of 0.665 ± 0.24.

The substance YAEVGGLYSTSGVRRKNGGR had an amyloid nucleation score of 0.346 ± 0.32.

Regarding LRIVS, the amyloid nucleation score is -0.11 ± 0.4.

With SAICRYVF, the amyloid nucleation score is 0.768 ± 0.66.

Consider HYRSTGMMESSRG, for which the amyloid nucleation score was found to be 0.522 ± 0.6.

In the case of PRIRHHSLYCVVYWFIIDRT, the amyloid nucleation score entry was “inactive”.

Substance ERLFELKCPNFCAELGSDS registered an amyloid nucleation score of 0.24 ± 0.41.

Take VPMLDLGKVYNRSACP: the amyloid nucleation score entry is “inactive”.

In the case of FRKCVGAQGGSGSWNGCPSE, the amyloid nucleation score was determined as 1.99 ± 0.23.

QPPKHMTMYVYVDTHEAVLS gave an amyloid nucleation score of -0.133 ± 0.38.

NLSVY displayed an amyloid nucleation score of -0.232 ± 0.74.

FLMKMKMSVFVLEYSILECM: the amyloid nucleation score was -1.12 ± 1.1.

In the case of AWLKSSGEEVVAGAQRPEHV, the amyloid nucleation score was -1.02 ± 0.9.

As to MGQGLCPRSYMFLVCELIVF, the amyloid nucleation score came to 0.818 ± 0.43.

On to FETYFEHYWGCVTYSSMFWS, for which the amyloid nucleation score turned out to be 2.45 ± 0.14.

In turn, LKMEYHVGRNWSLGKSRAPE yielded an amyloid nucleation score of 0.335 ± 0.92.

Regarding ILCIESLSGFPWLICIENSL, the amyloid nucleation score was determined as 0.135 ± 0.39.

In the case of RTFFRFKMSPWCINDYIMMR, the amyloid nucleation score is 0.222 ± 1.2.
